Source: the supplement of paper PMC10065799, “High-throughput profiling of sequence recognition by tyrosine kinases and SH2 domains using bacterial peptide display” (eLife, 2023)

How the values were obtained:
[1] = target: FGFR1 (UniProt P11362); assay: phosphorylation enrichment, bacterial display (enrichment ratio); higher = better substrate or ligand; peptides without Tyr show the background
[2] = system: AncSZ; assay: as above
[3] = system: c-Src; assay: as above
[4] = target: Fes (UniProt P07332); assay: as above
Sequence of Fes (P07332 whole entry, looked up): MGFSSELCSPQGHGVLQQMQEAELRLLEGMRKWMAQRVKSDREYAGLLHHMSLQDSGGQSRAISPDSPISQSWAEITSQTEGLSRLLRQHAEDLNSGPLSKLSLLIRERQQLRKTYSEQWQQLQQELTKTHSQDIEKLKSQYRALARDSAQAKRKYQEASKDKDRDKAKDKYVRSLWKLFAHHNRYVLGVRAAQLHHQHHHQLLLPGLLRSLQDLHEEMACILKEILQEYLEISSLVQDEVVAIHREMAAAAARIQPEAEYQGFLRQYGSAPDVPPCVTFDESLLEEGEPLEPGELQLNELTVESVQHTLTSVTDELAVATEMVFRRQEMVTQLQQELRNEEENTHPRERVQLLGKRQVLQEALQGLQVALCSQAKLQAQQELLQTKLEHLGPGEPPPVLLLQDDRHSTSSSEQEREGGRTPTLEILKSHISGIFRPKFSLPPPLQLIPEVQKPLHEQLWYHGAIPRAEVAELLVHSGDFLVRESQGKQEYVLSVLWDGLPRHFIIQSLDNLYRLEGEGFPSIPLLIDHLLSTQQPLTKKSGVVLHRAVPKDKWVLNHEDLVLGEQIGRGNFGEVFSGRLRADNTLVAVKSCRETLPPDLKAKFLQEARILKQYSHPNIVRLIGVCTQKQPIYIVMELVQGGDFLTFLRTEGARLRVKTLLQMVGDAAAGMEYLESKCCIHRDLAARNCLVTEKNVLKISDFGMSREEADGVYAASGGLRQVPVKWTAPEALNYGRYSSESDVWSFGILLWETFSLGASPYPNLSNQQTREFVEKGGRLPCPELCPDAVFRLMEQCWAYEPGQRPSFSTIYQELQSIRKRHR

[5] = target: Jak2 (UniProt O60674); assay: as above
[6] = target: EPHB2 (UniProt P29323); assay: as above
Sequence of EPHB2 (P29323 whole entry, looked up): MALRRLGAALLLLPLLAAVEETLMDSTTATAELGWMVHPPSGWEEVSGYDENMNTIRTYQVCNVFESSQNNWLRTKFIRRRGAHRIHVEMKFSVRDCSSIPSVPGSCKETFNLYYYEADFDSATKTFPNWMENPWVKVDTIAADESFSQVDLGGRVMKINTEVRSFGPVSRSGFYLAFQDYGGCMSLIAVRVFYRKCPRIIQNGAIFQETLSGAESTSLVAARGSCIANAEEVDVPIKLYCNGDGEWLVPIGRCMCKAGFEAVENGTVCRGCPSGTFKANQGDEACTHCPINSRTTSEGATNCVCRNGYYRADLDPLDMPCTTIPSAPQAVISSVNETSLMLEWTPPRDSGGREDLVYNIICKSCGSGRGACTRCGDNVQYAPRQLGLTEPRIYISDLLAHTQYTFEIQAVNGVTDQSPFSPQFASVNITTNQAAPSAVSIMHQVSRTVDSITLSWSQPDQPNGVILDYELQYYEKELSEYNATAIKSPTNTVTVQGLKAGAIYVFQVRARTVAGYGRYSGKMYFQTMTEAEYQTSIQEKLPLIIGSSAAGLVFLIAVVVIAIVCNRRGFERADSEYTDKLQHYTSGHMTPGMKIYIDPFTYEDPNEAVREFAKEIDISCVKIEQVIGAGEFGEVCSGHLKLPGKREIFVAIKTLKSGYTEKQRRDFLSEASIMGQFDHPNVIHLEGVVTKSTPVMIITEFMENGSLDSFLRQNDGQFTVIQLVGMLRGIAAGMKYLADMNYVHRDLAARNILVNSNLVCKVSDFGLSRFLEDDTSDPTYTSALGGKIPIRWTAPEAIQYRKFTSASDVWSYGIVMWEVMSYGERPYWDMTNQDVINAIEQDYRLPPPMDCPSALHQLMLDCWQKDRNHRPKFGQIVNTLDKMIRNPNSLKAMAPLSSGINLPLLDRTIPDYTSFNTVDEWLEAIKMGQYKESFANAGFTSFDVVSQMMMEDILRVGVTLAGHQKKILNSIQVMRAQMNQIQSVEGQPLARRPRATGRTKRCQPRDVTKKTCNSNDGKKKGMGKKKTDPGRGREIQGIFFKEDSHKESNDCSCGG

[7] = target: Fyn (UniProt P06241); assay: as above
Sequence of Fyn (P06241 whole entry, looked up): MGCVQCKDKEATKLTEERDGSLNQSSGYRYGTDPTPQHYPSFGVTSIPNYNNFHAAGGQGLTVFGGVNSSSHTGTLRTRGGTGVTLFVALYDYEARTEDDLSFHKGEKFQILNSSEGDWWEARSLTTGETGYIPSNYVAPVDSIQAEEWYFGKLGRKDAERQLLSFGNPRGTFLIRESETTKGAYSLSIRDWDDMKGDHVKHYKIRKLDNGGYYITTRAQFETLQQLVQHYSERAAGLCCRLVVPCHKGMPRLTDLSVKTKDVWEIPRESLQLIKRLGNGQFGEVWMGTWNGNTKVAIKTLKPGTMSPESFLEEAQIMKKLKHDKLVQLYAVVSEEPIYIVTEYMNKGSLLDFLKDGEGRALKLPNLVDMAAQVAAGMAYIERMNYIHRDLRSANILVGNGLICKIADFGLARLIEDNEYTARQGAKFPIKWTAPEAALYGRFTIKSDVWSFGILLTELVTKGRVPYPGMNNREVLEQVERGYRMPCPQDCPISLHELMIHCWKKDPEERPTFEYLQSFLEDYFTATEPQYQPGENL

[8] = system: Fer (mouse); assay: as above
[9] = system: c-Abl (mouse); assay: as above
[10] = target: EPHB1 (UniProt P54762); assay: as above
[11] = target: Hck (UniProt P08631); assay: as above
Sequence of Hck (P08631 whole entry, looked up): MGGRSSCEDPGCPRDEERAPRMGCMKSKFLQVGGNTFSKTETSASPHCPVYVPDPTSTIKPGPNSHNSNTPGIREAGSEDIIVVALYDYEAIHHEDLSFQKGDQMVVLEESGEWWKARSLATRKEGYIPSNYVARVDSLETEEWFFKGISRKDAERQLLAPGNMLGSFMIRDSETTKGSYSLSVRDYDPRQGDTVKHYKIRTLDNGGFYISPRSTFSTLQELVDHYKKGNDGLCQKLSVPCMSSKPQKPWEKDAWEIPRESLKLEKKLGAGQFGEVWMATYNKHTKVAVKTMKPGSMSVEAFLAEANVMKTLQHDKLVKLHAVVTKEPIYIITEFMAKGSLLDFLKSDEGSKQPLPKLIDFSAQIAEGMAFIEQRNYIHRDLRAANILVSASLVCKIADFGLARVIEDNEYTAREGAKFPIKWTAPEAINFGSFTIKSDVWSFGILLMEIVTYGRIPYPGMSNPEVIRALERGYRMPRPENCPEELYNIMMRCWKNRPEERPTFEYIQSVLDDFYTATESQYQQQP

[12] = target: MERTK (UniProt Q12866); assay: as above
[13] = target: FGFR3 (UniProt P22607); assay: as above
Sequence of FGFR3 (P22607 whole entry, looked up): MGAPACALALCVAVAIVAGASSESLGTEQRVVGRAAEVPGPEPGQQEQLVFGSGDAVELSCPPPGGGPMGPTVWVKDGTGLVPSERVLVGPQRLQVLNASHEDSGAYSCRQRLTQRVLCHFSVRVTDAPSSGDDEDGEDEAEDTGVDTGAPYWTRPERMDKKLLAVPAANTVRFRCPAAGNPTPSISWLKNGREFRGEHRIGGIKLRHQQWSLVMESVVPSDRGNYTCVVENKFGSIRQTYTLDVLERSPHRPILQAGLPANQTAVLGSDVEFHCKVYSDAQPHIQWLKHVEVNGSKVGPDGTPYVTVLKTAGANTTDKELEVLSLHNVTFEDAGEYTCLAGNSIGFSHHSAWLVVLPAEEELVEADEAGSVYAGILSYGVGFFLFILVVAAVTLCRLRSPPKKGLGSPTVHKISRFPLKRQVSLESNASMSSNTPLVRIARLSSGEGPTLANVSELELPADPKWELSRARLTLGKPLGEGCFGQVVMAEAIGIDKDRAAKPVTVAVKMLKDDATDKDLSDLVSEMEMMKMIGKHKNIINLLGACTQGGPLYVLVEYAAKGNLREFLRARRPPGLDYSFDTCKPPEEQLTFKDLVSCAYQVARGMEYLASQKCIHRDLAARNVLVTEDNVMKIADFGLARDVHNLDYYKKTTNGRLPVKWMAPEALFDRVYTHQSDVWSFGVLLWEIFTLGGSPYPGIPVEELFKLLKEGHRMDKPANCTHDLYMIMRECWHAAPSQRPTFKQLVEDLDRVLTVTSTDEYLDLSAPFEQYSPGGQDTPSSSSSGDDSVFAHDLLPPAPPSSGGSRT

[14] = target: Grb2 SH2 (UniProt P62993); assay: SH2 binding enrichment of the phosphorylated peptide, bacterial display (enrichment ratio); higher = better substrate or ligand; peptides without Tyr show the background
Sequence of Grb2 SH2 (P62993 whole entry, looked up): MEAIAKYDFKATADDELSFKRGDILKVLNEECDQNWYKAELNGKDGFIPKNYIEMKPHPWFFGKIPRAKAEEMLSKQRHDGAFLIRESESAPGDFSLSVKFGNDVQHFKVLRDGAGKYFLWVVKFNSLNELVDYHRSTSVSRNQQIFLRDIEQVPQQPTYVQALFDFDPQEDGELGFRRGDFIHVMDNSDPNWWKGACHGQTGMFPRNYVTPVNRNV

[15] = target: SHP2-C SH2; assay: as above
[16] = target: c-Src SH2; assay: as above
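Wherever SH2 binding enrichment of the phosphorylated peptide, bacterial display is given: peptide library displayed on the E. coli surface as eCPX fusions, selected cells deep-sequenced, score is each peptide's frequency after selection divided by its frequency in the input.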
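Wherever phosphorylation enrichment, bacterial display is given: 11-residue human phosphosite peptides and single-mutation variants displayed on the E. coli surface, counted by deep sequencing, each peptide's frequency after selection divided by its frequency in the unselected input library; frequency after pTyr selection over input frequency; kinase dosed for 20-30% of maximal phosphorylation in three min.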

Sequence of FGFR1 (P11362 whole entry, looked up): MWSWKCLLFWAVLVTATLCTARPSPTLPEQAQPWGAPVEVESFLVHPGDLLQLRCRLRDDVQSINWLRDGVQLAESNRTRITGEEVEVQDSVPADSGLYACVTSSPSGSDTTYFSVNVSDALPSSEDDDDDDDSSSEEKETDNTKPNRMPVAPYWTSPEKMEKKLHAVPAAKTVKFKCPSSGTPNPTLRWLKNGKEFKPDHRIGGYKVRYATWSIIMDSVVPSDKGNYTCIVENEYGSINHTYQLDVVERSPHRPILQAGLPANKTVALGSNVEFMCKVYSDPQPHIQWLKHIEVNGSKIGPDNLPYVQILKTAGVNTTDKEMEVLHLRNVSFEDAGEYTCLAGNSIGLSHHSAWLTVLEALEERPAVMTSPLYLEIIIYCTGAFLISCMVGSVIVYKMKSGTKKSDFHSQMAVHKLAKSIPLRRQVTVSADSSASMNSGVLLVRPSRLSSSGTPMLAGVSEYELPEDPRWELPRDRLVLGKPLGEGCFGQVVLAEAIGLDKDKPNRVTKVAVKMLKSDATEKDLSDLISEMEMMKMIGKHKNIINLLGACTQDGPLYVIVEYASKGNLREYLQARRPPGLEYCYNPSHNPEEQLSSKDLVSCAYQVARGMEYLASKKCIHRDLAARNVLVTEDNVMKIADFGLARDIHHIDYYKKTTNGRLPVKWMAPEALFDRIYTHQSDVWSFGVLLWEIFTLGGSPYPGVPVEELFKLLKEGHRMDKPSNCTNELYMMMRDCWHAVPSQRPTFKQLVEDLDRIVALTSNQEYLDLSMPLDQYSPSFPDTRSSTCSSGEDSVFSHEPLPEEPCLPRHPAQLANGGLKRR

Row | Sequence | phosphorylation enrichment [1] | phosphorylation enrichment [2] | phosphorylation enrichment [3] | phosphorylation enrichment [4] | phosphorylation enrichment [5] | phosphorylation enrichment [6] | phosphorylation enrichment [7] | phosphorylation enrichment [8] | phosphorylation enrichment [9] | phosphorylation enrichment [10] | phosphorylation enrichment [11] | phosphorylation enrichment [12] | phosphorylation enrichment [13] | SH2 binding enrichment [14] | SH2 binding enrichment [15] | SH2 binding enrichment [16]
1 | NPQKPYFIRLF [WAS_Y83_S82P_YF] | 0.511 | 1.17 | 0.373 | 1 | 0.878 | 0.579 | 0.438 | 0.457 | 0.423 | 0.633 | 0.479 | 0.423 | 0.637 | 0.919 | 0.924 | 0.504
2 | WAFNLYDINKF [KCNIP3_Y174_D179Y_YF] | 0.497 | 1.02 | 1.61 | 1.26 | 0.933 | 3.11 | 2.08 | 4.81 | 0.662 | 2.22 | 3.36 | 3.37 | 0.669 | 0.905 | 0.731 | 0.519
3 | LHSEAYLKFNE [PBRM1_Y1610_I1614N_YF] | 0.72 | 1.53 | 0.707 | 1.31 | 1.06 | 0.651 | 1.05 | 0.493 | 0.922 | 0.438 | 0.488 | 0.737 | 0.945 | 1.34 | 1 | 0.539
4 | DGNTRYSTFSE [TKTL1_Y318_D315N] | 0.402 | 0.789 | 0.569 | 0.969 | 1.01 | 0.48 | 0.319 | 0.383 | 0.746 | 0.473 | 0.418 | 0.339 | 0.533 | 0.655 | 1.07 | 1.02
5 | FAKSVYWDNTL [NUP107_Y296_E298D_YF] | 0.525 | 1 | 0.76 | 1.04 | 1.02 | 0.772 | 0.679 | 0.463 | 0.656 | 0.719 | 0.578 | 0.725 | 0.688 | 0.781 | 0.694 | 0.691
6 | GRQGIYKENER [GPR143_Y231_T232K] | 0.441 | 0.627 | 0.436 | 0.722 | 0.515 | 0.375 | 0.371 | 0.407 | 0.555 | 0.322 | 0.484 | 0.738 | 0.428 | 0.735 | 0.427 | 0.443
7 | TSEASYYKSLN [NGEF_Y288] | 0.516 | 0.743 | 0.49 | 0.789 | 0.802 | 0.498 | 0.464 | 0.464 | 0.658 | 0.575 | 0.407 | 0.535 | 0.707 | 0.684 | 0.518 | 0.528
8 | GTSLIYWILFT [G6PC3_Y214_T216I] | 1.17 | 1.18 | 2.67 | 1.56 | 1.59 | 0.749 | 2.42 | 0.55 | 1.43 | 1 | 1.74 | 1.46 | 1.38 | 0.742 | 0.695 | 0.593
9 | LSSVSYVGCSL [ADGRD1_Y571_I569V] | 0.949 | 1.2 | 1.12 | 1.46 | 1.23 | 1.06 | 1.16 | 0.98 | 1.35 | 0.633 | 1.01 | 1.05 | 1.04 | 0.798 | 0.691 | 0.519
10 | DFPGIYSGFDD [POLR1C_Y33_N32I_YF] | 0.531 | 1.31 | 7.13 | 1.3 | 1.1 | 0.585 | 9.82 | 0.782 | 0.806 | 0.692 | 6.28 | 0.814 | 0.768 | 0.707 | 0.531 | 0.579
11 | LVSCAYQMARG [FGFR1_Y605_V607M] | 0.66 | 1.22 | 1.4 | 2.32 | 0.937 | 0.79 | 0.589 | 0.824 | 0.998 | 0.578 | 0.741 | 0.489 | 0.882 | 0.731 | 0.9 | 0.661
12 | SVTCPYSPALN [TP53_Y126_T125P] | 0.505 | 0.961 | 2.15 | 1.29 | 1.17 | 0.573 | 0.481 | 0.656 | 1.21 | 0.572 | 0.616 | 0.437 | 0.679 | 0.939 | 0.7 | 0.556
13 | EQLQSYQVEII [KRT33A_Y268_A270V] | 0.531 | 1.14 | 0.575 | 1.21 | 0.945 | 0.529 | 0.579 | 0.597 | 0.858 | 0.67 | 0.53 | 0.513 | 0.762 | 0.832 | 0.629 | 0.457
14 | EADRKYEEVAH [TPM3_Y163_R168H] | 0.493 | 1 | 0.421 | 1.04 | 0.938 | 0.423 | 0.506 | 0.521 | 0.703 | 0.587 | 0.531 | 0.474 | 0.633 | 1.01 | 0.626 | 20.4
15 | KWRGQYDVAIK [BTK_Y425] | 0.527 | 0.676 | 0.567 | 0.742 | 0.543 | 0.642 | 0.491 | 0.429 | 0.802 | 0.399 | 0.479 | 0.463 | 0.546 | 1.34 | 0.935 | 1.21
16 | LRTAVHHEILI [CREBBP_Y1450_Y1450H] | 0.963 | 1.09 | 0.701 | 1.39 | 1.32 | 0.487 | 0.508 | 0.675 | 1.94 | 1.02 | 0.643 | 0.535 | 0.812 | 0.973 | 0.756 | 0.48
17 | DPEAAYTTRGG [EPHA3_Y779] | 0.376 | 0.629 | 0.475 | 0.717 | 0.652 | 0.385 | 0.531 | 0.45 | 0.559 | 0.466 | 0.468 | 0.374 | 0.507 | 0.872 | 0.588 | 0.357

Row | Sequence | phosphorylation enrichment [1] | phosphorylation enrichment [2] | phosphorylation enrichment [3] | phosphorylation enrichment [4] | phosphorylation enrichment [5] | phosphorylation enrichment [6] | phosphorylation enrichment [7] | phosphorylation enrichment [8] | phosphorylation enrichment [9] | phosphorylation enrichment [10] | phosphorylation enrichment [11] | phosphorylation enrichment [12] | phosphorylation enrichment [13] | SH2 binding enrichment [14] | SH2 binding enrichment [15] | SH2 binding enrichment [16]
18 | FEPWVYSLSYE [PRKDC_Y647_F649L] | 0.602 | 1.6 | 6.59 | 1.49 | 1.33 | 0.767 | 7.16 | 1.77 | 0.707 | 0.749 | 4.72 | 1.6 | 0.893 | 0.812 | 0.568 | 0.674
19 | KQRKEYMHRWQ [IQGAP2_Y710_R714W] | 0.577 | 0.846 | 0.584 | 1.02 | 1.68 | 0.746 | 0.523 | 0.617 | 1.05 | 0.652 | 0.613 | 0.519 | 1.16 | 2.29 | 2.21 | 2.02
20 | RLKAKYAAATG [GLI3_Y933] | 0.36 | 0.64 | 0.529 | 0.611 | 0.692 | 0.526 | 0.379 | 0.486 | 0.601 | 0.421 | 0.464 | 0.414 | 0.395 | 0.811 | 0.698 | 0.511
21 | NRLTDYYELLL [BBS10_Y536_P539L] | 11.9 | 1.64 | 1.69 | 1.17 | 1.68 | 1.66 | 1.1 | 1.98 | 1.15 | 2.44 | 1.46 | 3.04 | 10.1 | 1.19 | 0.83 | 1.16
22 | GRRGQYVMLSE [TTC7A_Y396] | 0.506 | 0.692 | 0.549 | 0.586 | 0.573 | 0.494 | 0.546 | 0.45 | 0.565 | 0.431 | 0.512 | 0.673 | 0.532 | 0.84 | 0.673 | 2.01
23 | AFLEDYFTSTE [SRC_Y522] | 1.16 | 1.91 | 0.783 | 1.83 | 1.46 | 0.606 | 0.54 | 0.572 | 1.31 | 0.598 | 0.549 | 0.578 | 1.42 | 0.967 | 0.959 | 0.578
24 | PINLYYLMDLS [ITGB2_Y131_D128N] | 16.3 | 3.58 | 4.42 | 2.62 | 6.89 | 6.74 | 4.6 | 5.63 | 1.44 | 8.27 | 4.27 | 11.6 | 15.7 | 1.22 | 1.16 | 0.624
25 | KLQKYYRKNPD [EHHADH_Y683_Q685K] | 0.311 | 0.399 | 0.275 | 0.501 | 0.486 | 0.415 | 0.359 | 0.283 | 0.394 | 0.353 | 0.341 | 0.369 | 0.332 | 0.905 | 0.604 | 0.597
26 | LSIDRYHAIVY [NPSR1_Y147] | 3.36 | 0.83 | 0.89 | 1.15 | 1.65 | 0.594 | 0.546 | 0.544 | 0.982 | 0.438 | 0.533 | 0.7 | 1.87 | 1.25 | 1.03 | 5.31
27 | TFHNTYHSHMR [IL1RAPL1_Y615_Q618H] | 0.67 | 0.529 | 0.554 | 0.884 | 0.725 | 0.485 | 0.4 | 0.44 | 0.538 | 0.367 | 0.667 | 0.482 | 0.424 | 1.09 | 1.51 | 0.861
28 | CATIHYNYMCN [TP53_Y234_T230A] | 0.6 | 0.78 | 0.389 | 0.896 | 0.717 | 1.99 | 0.464 | 0.573 | 0.511 | 0.591 | 0.487 | 0.435 | 0.563 | 1.23 | 3.31 | 6.91
29 | VDASYCGGRGV [ANTXR2_Y381_Y381C] | 0.405 | 0.712 | 0.476 | 0.63 | 0.573 | 0.28 | 0.676 | 0.48 | 0.519 | 0.373 | 0.342 | 0.559 | 0.463 | 0.62 | 0.331 | 0.382
30 | QTLTDYDIRFF [CSNK2A1_Y131_YF] | 0.569 | 1.16 | 0.481 | 1.48 | 0.998 | 0.677 | 0.709 | 0.604 | 0.737 | 0.626 | 0.691 | 0.531 | 0.888 | 0.794 | 0.651 | 0.413
31 | RMSQRYGDVLQ [CYP1A2_Y72] | 0.89 | 1.03 | 0.595 | 0.967 | 0.744 | 0.41 | 0.431 | 0.644 | 0.747 | 0.399 | 0.336 | 0.481 | 0.769 | 0.788 | 0.518 | 0.294
32 | SETDDYAEIIV [PTK2_Y397_D402V] | 1.16 | 1.4 | 0.61 | 1.17 | 1.09 | 1.04 | 0.519 | 0.82 | 0.677 | 0.83 | 0.655 | 0.524 | 1.2 | 0.975 | 0.761 | 0.795
33 | VIKDKYPKAHY [APTX_Y209_R213H] | 0.34 | 0.449 | 0.377 | 0.599 | 0.579 | 0.359 | 0.278 | 0.358 | 0.561 | 0.268 | 0.273 | 0.285 | 0.505 | 1.19 | 1.11 | 0.956
